T1: recombinant human ORF1p (LINE-1 open reading frame 1 protein, L1RP) (human, UniProt Q9UN81 1-338)
T1 construct: Expressed in E. coli, tag cleaved, monodisperse homotrimer; Immobilized on the CM5 chip in SPR; also called trimeric ORF1p
T1 sequence: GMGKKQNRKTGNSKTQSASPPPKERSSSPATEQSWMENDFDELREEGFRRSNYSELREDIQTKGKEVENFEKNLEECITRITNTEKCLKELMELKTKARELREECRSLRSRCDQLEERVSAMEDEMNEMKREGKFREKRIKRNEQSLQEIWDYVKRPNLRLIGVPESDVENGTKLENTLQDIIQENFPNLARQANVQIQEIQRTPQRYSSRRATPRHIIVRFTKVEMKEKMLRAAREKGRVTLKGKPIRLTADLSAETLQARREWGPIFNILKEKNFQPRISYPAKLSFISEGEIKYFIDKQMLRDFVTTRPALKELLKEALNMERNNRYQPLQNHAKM

B1: anti-ORF1 Nb dimer 4 Nb5-Nb1 (MT994) (bispecific antibody)
chain: QVQLVESGGDLVQAGGSLRLSCAVSGGTSSNYGMGWFRQAPGKEREFVSSISWSGSRTLYSDSVKGRFTISRDNAKNTVDLQMNSLKPEDTAVYYCTAVREYRDYPQRDNFDYWGQGTQVTVSGGGGSGGGGSGGGGSGGGGSMADVQLVESGGGLVQAGESLRLSCAASGRTLSSLNMAWFRQVPGKERDFVSLISRSGSTDYVHSVRGRFTISRDNAKNTVYLEMNSLKPEDTAVYYCAADDNYNGRYPFRDEYEYWGQGTQVTVSHHHHHH
notes: Heterodimeric tandem nanobody, short linker; also called Nb 5-1; Nb5-1 pMT994
B2: anti-ORF1 Nb dimer 2 Nb2-Nb2 (MT992) (VHH)
chain: DVQLVESGGGLVQAGGSLRLSCAASGRTDDIYTMGWFRQGPGKEREFVAVISWSITRRSSITHYADSVKGRFTISGENAENTVYLQMNTLKPEDTAVYYCAAKTGYSGSMSSYQDYDSWGQGTQVTVSGGGGSGGGGSGGGGSGGGGSMADVQLVESGGGLVQAGGSLRLSCAASGRTDDIYTMGWFRQGPGKEREFVAVISWSITRRSSITHYADSVKGRFTISGENAENTVYLQMNTLKPEDTAVYYCAAKTGYSGSMSSYQDYDSWGQGTQVTVSHHHHHH
notes: Homodimeric tandem nanobody, short (GGGGS)x4 linker; also called Nb 2-2; Nb2-2 pMT992
B3: anti-ORF1 Nanobody 10 (Nb10) (VHH)
VHH: QVQLVESGGGLVQAGESLRLSCQVSGRTFSISGAGWFRQAPGKEREFVAAITWTGGYPYYATSVKGRFTIARDDPENRVYLSMNSLKPEDTAVYYCATRRAGSLDFDYAQQTRYDNWGQGTQVTVSH
notes: Llama nanobody
B4: anti-ORF1 Nanobody 9 (Nb9) (VHH)
VHH: QVHLVESGGKLVQAGESLKLSCEVSGRTFSISGAGWFRQAPGKEREFVAAITWTGGYPYYDASVKGRFTISREDPDNTVYLSMNSLKPEDTAVYYCATRRAGDLDFSYAQQGRYDNWGQGTQVTVSH
notes: Llama nanobody
B5: anti-ORF1 Nb dimer 6 Nb5-Nb5 long linker (MT997) (bispecific antibody)
chain: QVQLVESGGDLVQAGGSLRLSCAVSGGTSSNYGMGWFRQAPGKEREFVSSISWSGSRTLYSDSVKGRFTISRDNAKNTVDLQMNSLKPEDTAVYYCTAVREYRDYPQRDNFDYWGQGTQVTVSGGGGSGGGGSGGGGSGGGGSEAAAKEAAAKEAAAKSGGGGSGGGGSGGGGSGGGGSMAQVQLVESGGDLVQAGGSLRLSCAVSGGTSSNYGMGWFRQAPGKEREFVSSISWSGSRTLYSDSVKGRFTISRDNAKNTVDLQMNSLKPEDTAVYYCTAVREYRDYPQRDNFDYWGQGTQVTVSHHHHHH
notes: Homodimeric tandem nanobody, long linker of 56 residues; also called Nb 5-5 long; Nb5-5LL
B6: anti-ORF1 Nanobody 21 (Nb21) (VHH)
VHH: QVQLAESGGGLVQAGGSLRLSCAASGRTSTIYIMGWFRQAPGKDREFVAGITYTGGYPYYADSVQGRFTLSNDNADHTAYLQMNNLKPEDSAVYYCAARSRGGITTHERDFGSWGQGTQVTVSH
notes: Llama nanobody
B7: anti-ORF1 Nb dimer 5 Nb5-Nb2 (MT995) (bispecific antibody)
chain: QVQLVESGGDLVQAGGSLRLSCAVSGGTSSNYGMGWFRQAPGKEREFVSSISWSGSRTLYSDSVKGRFTISRDNAKNTVDLQMNSLKPEDTAVYYCTAVREYRDYPQRDNFDYWGQGTQVTVSGGGGSGGGGSGGGGSGGGGSMADVQLVESGGGLVQAGGSLRLSCAASGRTDDIYTMGWFRQGPGKEREFVAVISWSITRRSSITHYADSVKGRFTISGENAENTVYLQMNTLKPEDTAVYYCAAKTGYSGSMSSYQDYDSWGQGTQVTVSHHHHHH
notes: Heterodimeric tandem nanobody, short linker; also called Nb 5-2; Nb5-2 pMT995
B8: anti-ORF1 Nb dimer 3 Nb5-Nb5 (MT993) (bispecific antibody)
chain: QVQLVESGGDLVQAGGSLRLSCAVSGGTSSNYGMGWFRQAPGKEREFVSSISWSGSRTLYSDSVKGRFTISRDNAKNTVDLQMNSLKPEDTAVYYCTAVREYRDYPQRDNFDYWGQGTQVTVSGGGGSGGGGSGGGGSGGGGSMAQVQLVESGGDLVQAGGSLRLSCAVSGGTSSNYGMGWFRQAPGKEREFVSSISWSGSRTLYSDSVKGRFTISRDNAKNTVDLQMNSLKPEDTAVYYCTAVREYRDYPQRDNFDYWGQGTQVTVSHHHHHH
notes: Homodimeric tandem nanobody, short linker; also called Nb 5-5; Nb5-5
B9: anti-ORF1 Nanobody 2 (Nb2) (VHH)
VHH: DVQLVESGGGLVQAGGSLRLSCAASGRTDDIYTMGWFRQGPGKEREFVAVISWSITRRSSITHYADSVKGRFTISGENAENTVYLQMNTLKPEDTAVYYCAAKTGYSGSMSSYQDYDSWGQGTQVTVSH
notes: Llama nanobody
B10: anti-ORF1 Nanobody 5 (Nb5) (VHH)
VHH: QVQLVESGGDLVQAGGSLRLSCAVSGGTSSNYGMGWFRQAPGKEREFVSSISWSGSRTLYSDSVKGRFTISRDNAKNTVDLQMNSLKPEDTAVYYCTAVREYRDYPQRDNFDYWGQGTQVTVSH
notes: Llama nanobody; also called Clone 5; C5
B11: anti-ORF1 Nb trimer Nb5-Nb5-Nb5 (MT996) (bispecific antibody)
chain: QVQLVESGGDLVQAGGSLRLSCAVSGGTSSNYGMGWFRQAPGKEREFVSSISWSGSRTLYSDSVKGRFTISRDNAKNTVDLQMNSLKPEDTAVYYCTAVREYRDYPQRDNFDYWGQGTQVTVSGGGGSGGGGSGGGGSGGGGSMAQVQLVESGGDLVQAGGSLRLSCAVSGGTSSNYGMGWFRQAPGKEREFVSSISWSGSRTLYSDSVKGRFTISRDNAKNTVDLQMNSLKPEDTAVYYCTAVREYRDYPQRDNFDYWGQGTQVTVSGGGGSGGGGSGGGGSGGGGSMAQVQLVESGGDLVQAGGSLRLSCAVSGGTSSNYGMGWFRQAPGKEREFVSSISWSGSRTLYSDSVKGRFTISRDNAKNTVDLQMNSLKPEDTAVYYCTAVREYRDYPQRDNFDYWGQGTQVTVSHHHHHH
notes: Homotrimeric tandem nanobody; also called Nb 5-5-5
B12: 34H7 (antibody, V domains shown)
VH: QSLEESGGDLVKPGASLTLTCTASGFSLNNYVMYWVRQAPGKGLESIACIYTGSGTTYYATWAKGRFTISKTSSTTVTLQMTSLTAADTATYFCARRTYTSDSYAGSFNLWGPGTLVTVSS
VL: AYDMTQTPASVSEPVGGTVTIKCQASQSIGSNLAWYQQKPGQRPKLLIYAASYLASGAPSRFKGSGSGTEFTLTISGVQCDDAATYYCQQGWSSSDVDSTFGGGTEVVVK
notes: Rabbit monoclonal antibody; also called 34H7-1; 37H7
B13: 42D10 (antibody, V domains shown)
VH: QSVEESGGRLVTPGTPLTLTCTVSGFSLSSYAMTWVRQAPGKGLEWIGYIYAGGIADYANWAKGRFTISKTSTTVDLTITSPTTEDTATYFCAREGDSDDYVYLSLWGPGTLVTVSS
VL: ALVMTQTPSSVSAAVGGTVTINCQASQSIVGYLAWYQQKPGQPPKLLIYRASTLASGVSSRFKGSGSGTEFTLTISGVQCADAATYYCQQGYINSNIDNTFGGGTEVVVK
notes: Rabbit monoclonal antibody; also called 42D10-1
B14: 34C5 (antibody, V domains shown)
VH: QSVEESGGRLVKPDESLTLTCTVSGFSLSAYEMGWVRQAPGKGLEWIAAISTGDTPYYATWTKGRFTISRASSTTVDLKMTSPTTEDTATYFCARYGHNYEYVFDLWGQGTLVTVSS
VL: AYDMTQTPASVSAAVGGTVTINCQASQSIGSYLSWYQQKPGQPPKLLIYSASTLASGVPSRFSGSGYGTEFTLTIGGVQCDDAAAYYCQQGESIGSVHNVFGGGTEVVVA
notes: Rabbit monoclonal antibody; also called 34C5-1
B15: 36D12 (antibody, V domains shown)
VH: QSVEESGGRLVTPGTPLTLTCTVSGFSLSTYAMGWFRQAPGKGLEWIGTIWSGAFTDYANWVNGRFTISKTSTTVDLKITSPTTEDTATYFCAREADSDLYTYFKLWGPGTLVTVSS
VL: AYDMTQTPASVEVAVGGTVTLKCQASESIEIYLAWYQQKPGQPPKLLVYDASTLASGVPSRFKGSGSGTQFTLTISGVECADAATYYCQQGYRSDNVHNVFGGGTEVVVK
notes: Rabbit monoclonal antibody; also called 36D12-1
B16: 33A8 (antibody, V domains shown)
VH: QSLEESGGGLVQPEGSLTLTCKASGFSFINNNHICWVRQAPGKGLEWIACIYAGSTGYTYYANWAKGRFTISKTSSTTVTLQMTSLTAADTATYFCARVPYAGYVNYGYTFFNLWGPGTLVTVSS
VL: AAVLTQTPSPVSAPVGGTVTISCQSSQSVYRTNDLAWYQQKPGQPPKLLIYWASKLAAGVPSRFKGSGSGTQFTLTISGVQCDDAATYYCLGGYYDDGDLNAFGGGTEVVVN
notes: Rabbit monoclonal antibody; also called 33A8-1

For one assay, the target named is T1, recombinant human ORF1p (LINE-1 open …). In words: SPR (Biacore 8K), ORF1p immobilized on CM5, single-cycle kinetics, 1:1 fit. How it is done: Surface plasmon resonance (SPR) assays. Binding kinetics (kₐ, kd, and KD) of antibody and nanobody constructs for ORF1p were obtained on a Biacore 8K instrument (Cytiva). Recombinant ORF1p was immobilized on a Series S CM5 sensor chip at 1.5 μg/ml using EDC/NHS coupling chemistry according to the manufacturer's guidelines. Nanobodies and antibodies were prepared as analytes and run in buffer containing 20 mM HEPES pH 7.4, 150 mM NaCl, and 0.05% Tween-20. Analytes were injected at 30 μl/min in single-cycle kinetics experiments at concentrations of 0.1, 0.3, 1, 3.3, and 10 nM, with association times of 120-180 sec, and a dissociation time of 1200-7200 sec, depending on observed off-rate. Residual bound protein was removed between experiments using 10 mM glycine-HCl pH 3.0. Data were analyzed using Biacore software, fitting a Langmuir 1:1 binding model to sensorgrams to calculate kinetic parameters.
(In SPR one partner is held on a chip, and binding of the other changes the refractive index at the surface.)
Broadly, the Kd is the constant that tells how readily two partners part at equilibrium. As to B1, the equilibrium dissociation constant (Kd) worked out at 83 pM.

In the case of B2, the dissociation constant Kd was 9.2 pM.

For B3, the dissociation constant (Kd) was 190 pM.

Regarding B4, the dissociation constant (Kd) amounted to 190 pM. Same read-out and setting: under B5 stands 9.8 pM.

Consider B6, for which the Kd was 240 pM.

Consider B7, for which the Kd amounted to 36 pM. Same read-out and setting: the value for B8 was 70 pM; that for B9 was 480 pM; that for B10 was 110 pM.

For B11, the equilibrium dissociation constant (Kd) stood at 27 pM.

For another assay the target is unchanged. The assay can be described thus: Simoa sandwich, recombinant ORF1p at 40 pg/mL in diluent buffer, signal/background heat map; capture on the x axis, detector on the y axis. How it is done:
ORF1p Simoa assays. Simoa assays were performed on an HD-X Analyzer (Quanterix Corp.), with all assay reagents and consumables loaded onto the instrument according to the manufacturer's instructions. 250,000 capture beads and 250,000 helper (non-conjugated) beads were used in each Simoa assay. A three-step assay configuration was used for the first- and second-generation assays, consisting of a 15-minute target capture step (incubation of capture beads with 100 μL sample), 5-minute incubation with detector reagent (0.3 μg/mL for both first- and second-generation assays), and 5-minute incubation with streptavidin-β-galactosidase (150 pM for first-generation assay; 300 pM for second-generation assays). The beads were washed with System Wash Buffer 1 (Quanterix Corp.) after each assay step. Upon the final wash cycle, the beads were loaded together with the fluorogenic enzyme substrate resorufin β-D-galactopyranoside into a 216,000-microwell array, which was subsequently sealed with oil. Automated imaging and counting of “on” and “off” wells and calculation of average enzyme per bead (AEB) were performed by the instrument. Calibration curves were fit using a 4PL fit with a 1/y² weighting factor, and the limit of detection (LOD) was determined as three standard deviations above the blank.
Signal/background was also determined for a number of the pairs by Simoa using recombinant ORF1p protein in diluent buffer; the results are shown in FIG. 15. When the rabbit monoclonal antibodies were used as capture and detector, the background was high. The best combinations were the rabbit monoclonal antibodies as capture/Ab6 detector; Nb5-5 capture/rabbit monoclonal antibodies detector; and 4H1 capture/rabbit monoclonal antibody detector pairs.
With B12, the binding result is “binds”.

Turning to B13, the binding result is “binds”. For the molecule B14, the binding result is “binds”. As to B15, the binding result is “binds”. Still for that read-out and setting: the value for B16 was “binds”.

Values taken from patent US20260176701A1 (BRIGHAM AND WOMEN S HOSPITAL, published 2026).
